From paper PMC12756731, “Substitution of Zn^2+ with Ni^2+ Alters Kinetic Steps in D‑2-Hydroxyglutarate Dehydrogenase from Pseudomonas aeruginosa PAO1” (ACS Omega, 2025)

T1: D-2-hydroxyglutarate dehydrogenase (P. aeruginosa D2HGDH; EFAD-Zn^2+, EFAD-Ni^2+) (Pseudomonas aeruginosa, UniProt Q9I6H4)
T1 construct: gene PA0317; 6 His-tag at the tail of the gene (C-terminal), pET20b(+), E. coli Rosetta(DE3)pLysS; loaded with Zn2+ or Ni2+
T1 sequence (Q9I6H4 1-464): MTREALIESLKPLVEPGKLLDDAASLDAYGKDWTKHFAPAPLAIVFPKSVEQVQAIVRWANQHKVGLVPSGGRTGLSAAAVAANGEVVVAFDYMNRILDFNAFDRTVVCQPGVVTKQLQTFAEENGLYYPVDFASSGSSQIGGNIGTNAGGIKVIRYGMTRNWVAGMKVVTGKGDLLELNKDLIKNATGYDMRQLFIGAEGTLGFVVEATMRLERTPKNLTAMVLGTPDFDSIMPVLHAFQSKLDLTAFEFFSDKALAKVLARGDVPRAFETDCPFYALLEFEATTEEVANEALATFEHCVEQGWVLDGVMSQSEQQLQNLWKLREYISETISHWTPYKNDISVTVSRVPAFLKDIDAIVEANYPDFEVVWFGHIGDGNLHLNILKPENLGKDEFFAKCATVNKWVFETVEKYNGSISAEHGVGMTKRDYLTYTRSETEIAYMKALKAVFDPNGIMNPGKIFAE

B1: D-2-hydroxyglutarate dehydrogenase (P. aeruginosa D2HGDH; EFAD-Zn^2+, EFAD-Ni^2+) (Pseudomonas aeruginosa PAO1) (protein)
chain: MTREALIESLKPLVEPGKLLDDAASLDAYGKDWTKHFAPAPLAIVFPKSVEQVQAIVRWANQHKVGLVPSGGRTGLSAAAVAANGEVVVAFDYMNRILDFNAFDRTVVCQPGVVTKQLQTFAEENGLYYPVDFASSGSSQIGGNIGTNAGGIKVIRYGMTRNWVAGMKVVTGKGDLLELNKDLIKNATGYDMRQLFIGAEGTLGFVVEATMRLERTPKNLTAMVLGTPDFDSIMPVLHAFQSKLDLTAFEFFSDKALAKVLARGDVPRAFETDCPFYALLEFEATTEEVANEALATFEHCVEQGWVLDGVMSQSEQQLQNLWKLREYISETISHWTPYKNDISVTVSRVPAFLKDIDAIVEANYPDFEVVWFGHIGDGNLHLNILKPENLGKDEFFAKCATVNKWVFETVEKYNGSISAEHGVGMTKRDYLTYTRSETEIAYMKALKAVFDPNGIMNPGKIFAE
notes: 6 His-tag at the tail of the gene (C-terminal), pET20b(+), E. coli Rosetta(DE3)pLysS; loaded with Zn2+ or Ni2+

Legend:
[1] = molecular target: T1, D-2-hydroxyglutarate dehydrogenase (P. aeruginosa D2HGDH; EFAD-Zn^2+, EFAD-Ni^2+); assay: UV-vis absorbance of purified enzyme with bound flavin; format: binding; conditions: co-purified oxidized FAD in EFAD-Ni2+ enzyme; maxima at 380 and 450 nm
[2] = substrate: O=C(O)CC[C@@H](O)C(=O)O; assay: PMS-driven oxygen consumption, Clark-type oxygen electrode, initial rates; format: biochemical, Pseudomonas aeruginosa; conditions: 1 mM PMS (saturating), 25 mM NaPO4, pH 7.4, 25 °C
From the text: PMS-driven oxygen consumption, Clark-type oxygen electrode, initial rates on D-2-hydroxyglutarate dehydrogenase (P. aeruginosa D2HGDH; EFAD-Zn^2+, EFAD-Ni^2+)

[3] = Ni2+-substituted enzyme (EFAD-Ni2+), non-native metal
[4] = native Zn2+-loaded enzyme (EFAD-Zn2+)

Row | Molecule | UV-vis absorbance of purified enzyme with bound flavin [1] | Km [2, 3] [µM] | kcat [2, 3] [s⁻¹] | kcat/Km [2, 3] [M⁻¹ s⁻¹] | Km [2, 4] [µM] | kcat [2, 4] [s⁻¹] | kcat/Km [2, 4] [M⁻¹ s⁻¹]
1 | Cc1cc2nc3c(=O)[nH]c(=O)nc-3n(C[C@H](O)[C@H](O)[C@H](O)COP(=O)(O)OP(=O)(O)OC[C@H]3O[C@@H](n4cnc5c(N)ncnc54)[C@H](O)[C@@H]3O)c2cc1C [FAD] | enzyme was in a fully oxidized state with the bound FAD cofactor |  |  |  |  |  | 
2 | B1 |  | 140 ± 10 | 18 ± 1 | 130000 ± 9000 | 150 ± 10 | 30 ± 1 | 205000 ± 10000
